Read-outs that look alike come from different tables or passages of the source. [ ]: non-standard residue; d: D form. Nle = CCCC[C@H](N)C(=O)O; Orn = NCCC[C@H](N)C(=O)O; Dab = NCC[C@H](N)C(=O)O; Sar = CNCC(=O)O
Legend:
[1] = target: T1, recombinant human melanocortin-4 receptor (hMCR-4) in membrane homogenates of HEK-293 cells (human, UniProt P32245 1-332); experiment: competitive inhibition of [I125]-NDP-alpha-MSH, hMCR-4 HEK-293 membranes
T1 construct: whole, on cells; Used as membrane homogenates, not intact cells; also called MC-4
T1 sequence (P32245 whole entry): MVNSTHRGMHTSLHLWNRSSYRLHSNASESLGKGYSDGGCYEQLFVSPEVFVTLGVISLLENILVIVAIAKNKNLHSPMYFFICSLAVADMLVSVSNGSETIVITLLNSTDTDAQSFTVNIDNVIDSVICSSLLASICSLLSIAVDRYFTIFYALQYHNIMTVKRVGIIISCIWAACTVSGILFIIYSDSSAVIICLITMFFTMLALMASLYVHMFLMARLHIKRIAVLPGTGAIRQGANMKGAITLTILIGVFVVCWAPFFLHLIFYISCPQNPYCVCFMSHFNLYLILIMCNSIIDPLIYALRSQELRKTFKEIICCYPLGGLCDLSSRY
Procedure: (§1) A competitive inhibition binding assay was performed using membrane homogenates prepared from HEK-293 cells that express recombinant hMCR-la or hMCR-4 (in each instance where the h prefix refers to human), or alternatively membrane homogenates from B16-F10 mouse melanoma cells containing endogenous murine MCR-1. In the examples that follow, all MCR-1 and MCR-4 values are for human recombinant receptors, unless otherwise noted. Assays were performed in 96 well polypropylene round-bottom plates (VWR catalog number 12777-030).
(§2) Membrane homogenates were incubated with 0.1 nM [I¹²⁵]-NDP-α-MSH (Perkin Elmer) and increasing concentrations of test peptides of the present invention in buffer containing 25 mM HEPES buffer (pH 7.5) with 100 mM NaCl, 2 mM CaCl₂, 2 mM MgCl₂, 0.3 mM 1,10-phenanthroline, and 0.2% bovine serum albumin. After incubation for 90 minutes at 37° C., the assay mixture was filtered onto GF/B Unifilter plates (Perkin-Elmer catalog number 6005177) and washed with 3 mL of ice-cold buffer per well. Filters were air dried and 35 μL of scintillation cocktail added to each well. Plates were counted in a Microbeta counter for bound radioactivity. […] Maximal specific binding (100%) was defined as the difference in radioactivity (cpm) bound to cell membranes in the absence and presence of 1 μM NDP-α-MSH. Each assay was conducted in duplicate and the actual mean values are described, with results less than 0% reported as 0%. Ki values for peptides of the present invention were determined using Graph-Pad PRISM® curve-fitting software.

[2] = target: T2, human melanocortin-1 receptor (hMCR-1) expressed by the human melanoma cell line HBL (human, UniProt Q01726 1-317); experiment: cell-based or functional assay
T2 sequence (Q01726 whole entry): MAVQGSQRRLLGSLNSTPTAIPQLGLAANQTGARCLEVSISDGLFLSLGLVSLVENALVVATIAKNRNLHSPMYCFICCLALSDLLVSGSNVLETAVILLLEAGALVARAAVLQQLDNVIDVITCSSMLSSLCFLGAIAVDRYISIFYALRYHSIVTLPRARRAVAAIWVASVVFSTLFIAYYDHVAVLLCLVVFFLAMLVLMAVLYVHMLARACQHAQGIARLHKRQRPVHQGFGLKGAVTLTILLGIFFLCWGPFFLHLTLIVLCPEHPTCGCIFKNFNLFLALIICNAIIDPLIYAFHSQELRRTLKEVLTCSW

[3] = target: T3, recombinant human melanocortin-1 receptor (hMCR-1a) in membrane homogenates of HEK-293 cells (human, UniProt Q01726 1-317); experiment: competitive inhibition of [I125]-NDP-alpha-MSH, hMCR-1 HEK-293 membranes
T3 construct: whole, on cells; Used as membrane homogenates, not intact cells; also called hMCR-la; MC-1
T3 sequence (Q01726 whole entry): as above
Procedure: as §1, §2

[4] = target: T2, human melanocortin-1 receptor (hMCR-1) …; experiment: cell-based or functional assay; remark: listed apart in the source
[5] = target: T2, human melanocortin-1 receptor (hMCR-1) …; experiment: cell-based or functional assay; remark: listed apart in the source
[6] = target: T2, human melanocortin-1 receptor (hMCR-1) …; experiment: cell-based or functional assay; remark: listed apart in the source
[7] = target: T2, human melanocortin-1 receptor (hMCR-1) …; experiment: cell-based or functional assay; remark: listed apart in the source
[8] = target: T2, human melanocortin-1 receptor (hMCR-1) …; experiment: cell-based or functional assay; remark: listed apart in the source

Row | Ki [1] | Ki [3] | Binder | also measured
1 | 3420 nM | 35 nM | Ac-[Nle]H[dF]RAW-NH2 (SMILES CCCC[C@H](NC(C)=O)C(=O)N[C@@H](Cc1c[nH]cn1)C(=O)N[C@H](Cc1ccccc1)C(=O)N[C@@H](CCCNC(=N)N)C(=O)N[C@@H](C)C(=O)N[C@@H](Cc1c[nH]c2ccccc12)C(N)=O, synthetic linear peptide) [Ac-Nle-His-D-Phe-Arg-Ala-Trp-NH2] | MC-1 EC50 (average; cAMP HBL) [2]: 1 nM
2 | 885 nM | 0.8 nM | Ac-[Nle]AH[dF]RGW-NH2 (SMILES CCCC[C@H](NC(C)=O)C(=O)N[C@@H](C)C(=O)N[C@@H](Cc1c[nH]cn1)C(=O)N[C@H](Cc1ccccc1)C(=O)N[C@@H](CCCNC(=N)N)C(=O)NCC(=O)N[C@@H](Cc1c[nH]c2ccccc12)C(N)=O, synthetic linear peptide) [Ac-Nle-Ala-His-D-Phe-Arg-Gly-Trp-NH2] | MC-1 EC50 (average; cAMP HBL) [4]: 0.038 nM
3 | 10000 nM | 4 nM | Ac-[Nle]AK[dF]RAW-NH2 (SMILES CCCC[C@H](NC(C)=O)C(=O)N[C@@H](C)C(=O)N[C@@H](CCCCN)C(=O)N[C@H](Cc1ccccc1)C(=O)N[C@@H](CCCNC(=N)N)C(=O)N[C@@H](C)C(=O)N[C@@H](Cc1c[nH]c2ccccc12)C(N)=O, synthetic linear peptide) [Ac-Nle-Ala-Lys-D-Phe-Arg-Ala-Trp-NH2] | MC-1 EC50 (average; cAMP HBL) [5]: 0.1 nM
4 | – | – | Ac-[Nle]AH[dF]R[Sar]W-NH2 (SMILES CCCC[C@H](NC(C)=O)C(=O)N[C@@H](C)C(=O)N[C@@H](Cc1c[nH]cn1)C(=O)N[C@H](Cc1ccccc1)C(=O)N[C@@H](CCCNC(=N)N)C(=O)N(C)CC(=O)N[C@@H](Cc1c[nH]c2ccccc12)C(N)=O) [Ac-Nle-Ala-His-D-Phe-Arg-Sar-Trp-NH2] | MC-1 EC50 (average; cAMP HBL) [6]: 0.17 nM
5 | – | – | Ac-[Nle]A[Dab][dF]RAW-NH2 (SMILES CCCC[C@H](NC(C)=O)C(=O)N[C@@H](C)C(=O)N[C@@H](CCN)C(=O)N[C@H](Cc1ccccc1)C(=O)N[C@@H](CCCNC(=N)N)C(=O)N[C@@H](C)C(=O)N[C@@H](Cc1c[nH]c2ccccc12)C(N)=O) [Ac-Nle-Ala-Dab-D-Phe-Arg-Ala-Trp-NH2] | MC-1 EC50 (average; cAMP HBL) [7]: 0.165 nM
6 | – | – | Ac-[Nle]A[Orn][dF]RAW-NH2 (SMILES CCCC[C@H](NC(C)=O)C(=O)N[C@@H](C)C(=O)N[C@@H](CCCN)C(=O)N[C@H](Cc1ccccc1)C(=O)N[C@@H](CCCNC(=N)N)C(=O)N[C@@H](C)C(=O)N[C@@H](Cc1c[nH]c2ccccc12)C(N)=O) [Ac-Nle-Ala-Orn-D-Phe-Arg-Ala-Trp-NH2] | MC-1 EC50 (average; cAMP HBL) [8]: 0.045 nM
